The results in this text go back to the supplement of paper PMC7877785.

This data set in a line: self-splicing fitness, log relative to wild type (ln ratio); higher = more splicing; Tetrahymena group I intron in knt gene, E. coli kanamycin selection, DiMSum; sequences stand for … in CUCUCU…GGAGGGAAAAGUUAUCAGGCAUGCACCUGGUAGCUAGUCUUUAAACCAAUAGAUUGCAUCGGUUUAAAAGGCAAGACCGUCAAAUUGCGGGAAAGGGGUCAACAGCCGUUCAGUACCAAGUCUCAGGGGAAACUUUGAGAUGGCCUUGCAAAGGGUAUGGUAAUAAGCUGACGGACAUGGUCCUAACCACGCAGCCAAGUCCUAAGUCAACAGAUCUUCUGUUGAUAUGGAUGCAGUUCACAGACUAAAUGUCGGUCGGGGAAGAUGUAUUCUUCUCAUAAGAUAUAGUCGGACCUCUCCUUAAUGGGAGCUAGCGGAUGAAGUGAUGCAACACUGGAGCCGCUGGGAACUAAUUUGUAUGCGAAAGUAUAUUGAUUAGUUUUGGAGUACUCGUGGUCG
Put shortly:
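Pooled colonies went to amplicon sequencing on an Illumina HiSeq 2500 after six replicate transformations. The plates were LB agar with 100 μg/mL carbenicillin, 50 μM IPTG and 0.2% rhamnose, with or without 25 μg/mL kanamycin, incubated overnight at 37°C or 30°C. The E. coli BL21(DE3) library had all eight P1ex-region intron nucleotides randomised, the intron placed in the knt kanamycin-resistance gene on pET-22b(+). DiMSum fitness is the error-weighted combination of replicate fold changes, kanamycin against none, normalised to wild type.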

± gives the uncertainty stated by the source.

For the sequence UCAGAGCAAUAUUACGUAGA, the “self-splicing fitness (ln)” value was -0.896 ± 0.075 (30 °C) and 0.113 ± 0.12 (37 °C).
As for GCUCAGCAAUAUUACGGGGU, the “self-splicing fitness (ln)” value by setting is: (30 °C) -3.51 ± 0.15; (37 °C) -1.39 ± 0.14.
Take GAUCAGCAAUAUUACGUAGU: the “self-splicing fitness (ln)” value reads like this: (30 °C) -0.663 ± 0.1; (37 °C) -0.885 ± 0.1.
On to UCUCAGCAAUAUUACGGGUA, for which the “self-splicing fitness (ln)” value (30 °C) is -0.605 ± 0.11 and the “self-splicing fitness (ln)” value (37 °C) is -0.0376 ± 0.11.
CUUAAGCAAUAUUACGCGCA: the “self-splicing fitness (ln)” value (30 °C) was -3.58 ± 0.35.
With GUAUAGCAAUAUUACGGAAC, the “self-splicing fitness (ln)” value is -3.32 ± 0.15 (30 °C) and -1.77 ± 0.13 (37 °C).
As to UGCCAGCAAUAUUACGUCGG, the “self-splicing fitness (ln)” value runs as follows: (30 °C) -4.72 ± 0.41; (37 °C) -2.68 ± 0.25.
The matching figures for ACUGAGCAAUAUUACGUGGU: -4.07 ± 0.14 and -2.56 ± 0.13.
The corresponding values for UUACAGCAAUAUUACGAGGU are -3.08 ± 0.22 and -2.72 ± 0.23.
The corresponding values for AUUGAGCAAUAUUACGAUAC are -3.01 ± 0.42 and -1.65 ± 0.34.
For the sequence GCAGAGCAAUAUUACGAGAA, the “self-splicing fitness (ln)” value (37 °C) is -1.96 ± 0.32.
As to CGAGAGCAAUAUUACGCUAC, the “self-splicing fitness (ln)” value (37 °C) was -2.11 ± 0.4.
Regarding GCGUAGCAAUAUUACGGUCC, the “self-splicing fitness (ln)” value by setting is: (30 °C) -1.23 ± 0.38; (37 °C) -1.02 ± 0.3.
The matching figures for CCUGAGCAAUAUUACGCGGC: -3.57 ± 0.2 and -2.55 ± 0.22.
The corresponding values for UGAAAGCAAUAUUACGGUCG are 0.0681 ± 0.051 and 0.137 ± 0.067.
In the case of ACAAAGCAAUAUUACGCGAA, the “self-splicing fitness (ln)” value (30 °C) is -2.41 ± 0.096 and the “self-splicing fitness (ln)” value (37 °C) was -1.13 ± 0.092.
With UCCAAGCAAUAUUACGAGUC, the “self-splicing fitness (ln)” value reads like this: (30 °C) -3.66 ± 0.19; (37 °C) -2.97 ± 0.24.
The matching figures for AUGAAGCAAUAUUACGAAGU: -1.21 ± 0.1 and -0.533 ± 0.12.
The matching figures for UGGUAGCAAUAUUACGCGUU: -2.76 ± 0.13 and -1.32 ± 0.12.
The matching figures for CCGUAGCAAUAUUACGCACG: -2.02 ± 0.096 and -1.53 ± 0.13.
Take UAACAGCAAUAUUACGCGUG: the “self-splicing fitness (ln)” value is -0.718 ± 0.041 (30 °C) and 0.173 ± 0.055 (37 °C).
Turning to GGCAAGCAAUAUUACGUUAC, the “self-splicing fitness (ln)” value by setting is: (30 °C) -1.39 ± 0.12; (37 °C) -1.5 ± 0.14.
In the case of GAUUAGCAAUAUUACGGGUA, the “self-splicing fitness (ln)” value is -1.98 ± 0.13 (30 °C) and -1.04 ± 0.12 (37 °C).
For AGAUAGCAAUAUUACGGUUG, the “self-splicing fitness (ln)” value is -3.03 ± 0.17 (30 °C) and -2.57 ± 0.29 (37 °C).
The corresponding values for UAACAGCAAUAUUACGAAGA are -2.48 ± 0.14 and -1.33 ± 0.11.
As for UCCGAGCAAUAUUACGUCCA, the “self-splicing fitness (ln)” value is, setting by setting: (30 °C) -2.89 ± 0.38; (37 °C) -2.37 ± 0.34.
The corresponding values for UCUGAGCAAUAUUACGGGUU are -2.32 ± 0.17 and -2.5 ± 0.24.
For the sequence GGGCAGCAAUAUUACGGCAG, the “self-splicing fitness (ln)” value reads like this: (30 °C) -2.41 ± 0.13; (37 °C) -0.994 ± 0.14.
The matching figures for UCAAAGCAAUAUUACGGCUA: -0.599 ± 0.1 and -1.31 ± 0.13.
For ACAGAGCAAUAUUACGCCGC, the “self-splicing fitness (ln)” value runs as follows: (30 °C) -3.09 ± 0.48; (37 °C) -1.07 ± 0.36.
The matching figures for AGUCAGCAAUAUUACGGCAA: -0.287 ± 0.083 and -0.215 ± 0.081.
Take CGGAAGCAAUAUUACGGGAC: the “self-splicing fitness (ln)” value (30 °C) is -3.5 ± 0.3.
Consider GGCAAGCAAUAUUACGUAUA, for which the “self-splicing fitness (ln)” value (30 °C) was -1.02 ± 0.066 and the “self-splicing fitness (ln)” value (37 °C) was -0.515 ± 0.07.
The matching figures for CUUGAGCAAUAUUACGCUUC: -2.91 ± 0.28 and -1.96 ± 0.45.
The matching figures for CGGCAGCAAUAUUACGAGAC: -3.78 ± 0.22 and -3.43 ± 0.35.
As for AUUCAGCAAUAUUACGACAG, the “self-splicing fitness (ln)” value (30 °C) was -2.39 ± 0.16 and the “self-splicing fitness (ln)” value (37 °C) is -0.849 ± 0.17.
ACAAAGCAAUAUUACGCCAC: the “self-splicing fitness (ln)” value (30 °C) is -3.01 ± 0.38.
Regarding AGACAGCAAUAUUACGGGCC, the “self-splicing fitness (ln)” value is, setting by setting: (30 °C) -1.45 ± 0.1; (37 °C) -1.21 ± 0.11.
Consider AAAGAGCAAUAUUACGCUAU, for which, where the note is “37 °C”, the “self-splicing fitness (ln)” value is -2.46 ± 0.21.
As to UAUCAGCAAUAUUACGCUAC, the “self-splicing fitness (ln)” value was -4.2 ± 0.42 (30 °C) and -3.24 ± 0.26 (37 °C).
Turning to ACGCAGCAAUAUUACGGUUU, the “self-splicing fitness (ln)” value reads like this: (30 °C) -0.937 ± 0.054; (37 °C) -0.076 ± 0.083.
The corresponding values for AAACAGCAAUAUUACGCGGC are -3.54 ± 0.12 and -2.7 ± 0.12.
On to GGGAAGCAAUAUUACGUCAA, for which the “self-splicing fitness (ln)” value (30 °C) is -1.34 ± 0.32.
In the case of CUACAGCAAUAUUACGAACG, the “self-splicing fitness (ln)” value is, setting by setting: (30 °C) 0.241 ± 0.11; (37 °C) 0.6 ± 0.14.
Regarding CAACAGCAAUAUUACGCGGA, the “self-splicing fitness (ln)” value (30 °C) was -1.6 ± 0.1 and the “self-splicing fitness (ln)” value (37 °C) was -1.83 ± 0.091.
As for CGGUAGCAAUAUUACGUGUA, the “self-splicing fitness (ln)” value runs as follows: (30 °C) -3.31 ± 0.2; (37 °C) -2.97 ± 0.28.
Take UUACAGCAAUAUUACGUUCG: the “self-splicing fitness (ln)” value (30 °C) was -0.549 ± 0.061 and the “self-splicing fitness (ln)” value (37 °C) is -0.234 ± 0.091.
Consider AAUCAGCAAUAUUACGAUGA, for which the “self-splicing fitness (ln)” value runs as follows: (30 °C) 0.103 ± 0.059; (37 °C) 0.0645 ± 0.083.
Turning to AUCAAGCAAUAUUACGCGAU, the “self-splicing fitness (ln)” value by setting is: (30 °C) -4.42 ± 0.33; (37 °C) -3.08 ± 0.3.
The corresponding values for CACAAGCAAUAUUACGGGAU are -3.51 ± 0.14 and -1.41 ± 0.097.
The matching figures for CAUAAGCAAUAUUACGCACC: -2.33 ± 0.4 and -0.0667 ± 0.48.
Regarding UCGAAGCAAUAUUACGUUCU, the “self-splicing fitness (ln)” value by setting is: (30 °C) -1.72 ± 0.091; (37 °C) -1.53 ± 0.13.
Turning to UCCAAGCAAUAUUACGAGCC, the “self-splicing fitness (ln)” value is, setting by setting: (30 °C) -2.51 ± 0.49; (37 °C) -1.88 ± 0.29.
Turning to CGAGAGCAAUAUUACGUAGA, the “self-splicing fitness (ln)” value was -1.62 ± 0.2 (30 °C) and -1.68 ± 0.3 (37 °C).
The matching figures for AAUAAGCAAUAUUACGAUUC: -2.44 ± 0.12 and -1.13 ± 0.15.
The matching figures for ACGGAGCAAUAUUACGACGU: -2.27 ± 0.17 and -1.56 ± 0.23.
UGGAAGCAAUAUUACGUUCA: the “self-splicing fitness (ln)” value was -0.654 ± 0.069 (30 °C) and 0.00518 ± 0.092 (37 °C).
As to CGGAAGCAAUAUUACGCUGU, the “self-splicing fitness (ln)” value runs as follows: (30 °C) -3.49 ± 0.15; (37 °C) -1.3 ± 0.08.
CUGGAGCAAUAUUACGUAAU: the “self-splicing fitness (ln)” value (30 °C) is -2.46 ± 0.29.
Regarding CGGGAGCAAUAUUACGAAUU, the “self-splicing fitness (ln)” value (30 °C) is -3.16 ± 0.34.
Turning to GACGAGCAAUAUUACGUUCU, the “self-splicing fitness (ln)” value reads like this: (30 °C) -4.53 ± 0.37; (37 °C) -2.52 ± 0.24.
The matching figures for CGCUAGCAAUAUUACGUAAG: -0.553 ± 0.073 and -0.0723 ± 0.1.
The matching figures for UGUCAGCAAUAUUACGCCAA: -0.858 ± 0.13 and -0.585 ± 0.13.
The corresponding values for AUUUAGCAAUAUUACGAGUA are -2.95 ± 0.27 and -0.93 ± 0.18.
On to UGGUAGCAAUAUUACGGGCU, for which the “self-splicing fitness (ln)” value (30 °C) is -2.27 ± 0.14 and the “self-splicing fitness (ln)” value (37 °C) was -0.926 ± 0.11.
As to CUAUAGCAAUAUUACGUUAA, the “self-splicing fitness (ln)” value by setting is: (30 °C) -4.29 ± 0.47; (37 °C) -3.36 ± 0.42.
For CUCUAGCAAUAUUACGAAAA, the “self-splicing fitness (ln)” value (37 °C) was -1.12 ± 0.2.
On to GUCGAGCAAUAUUACGGUCU, for which the “self-splicing fitness (ln)” value was -3.35 ± 0.28 (30 °C) and -1.12 ± 0.18 (37 °C).
As to CCGAAGCAAUAUUACGUUGC, the “self-splicing fitness (ln)” value reads like this: (30 °C) -3.51 ± 0.21; (37 °C) -2.66 ± 0.22.
Consider CCAGAGCAAUAUUACGCAAC, for which the “self-splicing fitness (ln)” value runs as follows: (30 °C) -4.18 ± 0.24; (37 °C) -2.94 ± 0.12.
For the sequence CCGGAGCAAUAUUACGAUCG, the “self-splicing fitness (ln)” value was -0.502 ± 0.12 (30 °C) and 0.299 ± 0.16 (37 °C).
Consider UGCGAGCAAUAUUACGCAUU, for which the “self-splicing fitness (ln)” value (30 °C) was -5.15 ± 0.34 and the “self-splicing fitness (ln)” value (37 °C) was -3.1 ± 0.23.
The matching figures for UAGUAGCAAUAUUACGAAUG: -2.77 ± 0.16 and -0.412 ± 0.13.
The matching figures for UCCCAGCAAUAUUACGCGCG: -3.27 ± 0.17 and -2.98 ± 0.24.
For the sequence GCGAAGCAAUAUUACGUGUA, the “self-splicing fitness (ln)” value by setting is: (30 °C) -1.88 ± 0.093; (37 °C) -1.09 ± 0.072.
Regarding AACUAGCAAUAUUACGUGAA, the “self-splicing fitness (ln)” value (30 °C) was -1.86 ± 0.081 and the “self-splicing fitness (ln)” value (37 °C) was -1.51 ± 0.11.
The matching figures for UUCAAGCAAUAUUACGGGCU: -3.7 ± 0.21 and -1.81 ± 0.16.
In the case of UAGAAGCAAUAUUACGGGGG, under “37 °C”, the “self-splicing fitness (ln)” value is -2.25 ± 0.45.
